Experimental data reported in publication PMC10171809.

Biological target: HEXIM1 (UniProt O94992)
Assay: co-immunoprecipitation
Settings: reference: wild type; sites S43

binding against the reference: stronger
Substance: METTL3 (from UniProt Q86U44) S43A
